Experimental data reported in article PMC7067740, “NDRG2 Protects the Brain from Excitotoxicity by Facilitating Interstitial Glutamate Uptake” (Translational Stroke Research, 2019).

Target: endogenous Na+/K+-ATPase β1 (mouse (endogenous in cultured mouse …, UniProt P14094 1-304))
Assay: cell-based or functional assay

B1: endogenous NDRG2 (N-myc downstream regulated gene 2) (natural protein, UniProt Q9QYG0 1-371, looked up)
chain: MAELQEVQITEEKPLLPGQTPETAKEAELAARILLDQGQTHSVETPYGSVTFTVYGTPKPKRPAIFTYHDVGLNYKSCFQPLFRFGDMQEIIQNFVRVHVDAPGMEEGAPVFPLGYQYPSLDQLADMIPCILQYLNFSTIIGVGVGAGAYILSRYALNHPDTVEGLVLINIDPNAKGWMDWAAHKLTGLTSSIPDMILGHLFSQEELSGNSELIQKYRGIIQHAPNLENIELYWNSYNNRRDLNFERGGETTLKCPVMLVVGDQAPHEDAVVECNSKLDPTQTSFLKMADSGGQPQLTQPGKLTEAFKYFLQGMGYMASSCMTRLSRSRTASLTSAASIDGSRSRSRTLSQSSESGTLPSGPPGHTMEVSC
half-life of endogenous Na+/K+-ATPase β1 in astrocytes after TAT-Ctrl treatment, with 100 μM emetine, immunoblot: 1.83 h | half-life of endogenous Na+/K+-ATPase β1 in astrocytes after TAT-β1(244–263) treatment, with 100 μM emetine, immunoblot: 1.08 h
